Results from article PMC5643395.

Key:
Assay in all cases: ensemble FRET (microplate), salt-induced disassembly
Details in all cases: Reconstitution by dialysis from 2 M to 5 mM NaCl in 10 mM Tris-HCl, 0.1 mM EDTA; FRET over NaCl titration (FRET buffer and temperature not in the material) …
[1] = test system: histone octamer H2A R81E/R88E
[2] = test system: histone octamer H2A R81A/R88A
[3] = test system: histone octamer H2A R88A
[4] = test system: histone octamer H2A R88E
[5] = test system: histone octamer H2A R81A
[6] = test system: histone octamer H2A R81E

Substance: Widom 601 170 bp
- K half [1]: 452 mM NaCl
- K half [2]: 568 mM NaCl
- K half [3]: 668 mM NaCl
- K half [4]: 455 mM NaCl
- K half [5]: 632 mM NaCl
- K half [6]: 468 mM NaCl
